# Assay results taken from the PETadex activity labels.
# Changes are numbered by the printed parent chain.
# B1: unnamed (protein)
# chain: MFQRVWALTAALMLMLSLGATSSHAAQNPHERGPDPSNSYIEQARGSYSVSQRSISRLGSDGFRDGTMYYPTSTADGRFGVVAISPGYTASESTIAWLGPRLASFGFVVVTINTDSRYDQPRQRATQLHAALDHAIGDSVVGPRIDTSRQAVMGHSMGGGGALQAAEERDEIRAAVPLTPWNLKKGWSGVDAATLVIGAENDAIAPVRSHSIPFYESLTNAERRAYLELRREGHFAPNSSNTLIAKYSVSWLKRYVDNDLRYDQFIDPGPRTGITTGVSDYRLG
# B2: unnamed (protein)
# chain: ANPYERGPNPTDALLEARSGPFSVSEENVSRLSASGFGGGTIYYPRENNTYGAVAISPGYTATEASIAWLGERIASHGFVVITIDTITTLDQPDSRAEQLNAALNHMINRASSTVRSRIDSSRLAVMGHSMGGGGSLRLASQRPDLKAAIPLTPWHLNKNWSSVTVPTLIIGADLDTIAPVATHAKPFYNSLPSSISKAYLELDGATHAAPNIPNKIIGKYSVAWLKRFVDNDTRYTQFLCPGPRDGLFGEVEEYRSTCPFYPNSSSVDKLAAALE
# B3: unnamed (protein)
# chain: ANPYERGPNPTDALLEARSGPFSVSEENVSRLSASGFGGGTIYYPRENNTYGAVAISPGYTGTEASIAWLGERIASHGFVVITIDTITTLDQPDSRAEQLNAALNHMINRASSTVRSRIDSSRLAVMGHSMGGGGSLRLASQRPDLKAAIPLTPWHLNKNSSVTVPTLIIGADLDTIAPVATHAKPFYNSLPSSISKAYLELDGATHFAPNIPNKIIGKYSVAWLKRFVDNDTRYTQFLCPGPRDGLFGEVEEYRSTCPFY
# B4: unnamed (protein)
# chain: MELALALSLIASVAAAPTATLANGDTITGLNAIINEAFLGIPFAEPPVGNLRFKDPVPYSGSLDGQKFTSYGPSCMQQNPEGTYEENLPKAALDLVMQSKVFEAVSPSSEDCLTINVVRPPGTKAGANLPVMLWIFGGGFEVGGTSTFPPAQMITKSIAMGKPIIHVSVNYRVSSWGFLAGDEIKAEGSANAGLKDQRLGMQWVADNIAAFGGDPTKVTIFGESAGSMSVMCHILWNDGDNTYKGKPLFRAGIMQSGAMVPSDAVDGIYGNEIFDLLASNAGCGSASDKLACLRGVSSDTLEDATNNTPGFLAYSSLRLSYLPRPDGVNITDDMYALVREGKYANIPVIIGDQNDEGTFFGTSSLNVTTDAQAREYFKQSFVHASDAEIDTLMTAYPGDITQGSPFDTGILNALTPQFKRISAVLGDLGFTLARRYFLNHYTGGTKYSFLSKQLSGLPVLGTFHSNDIVFQDYLLGSGSLIYNNAFIAFATDLDPNTAGLLVKWPEYTSSSQSGNNLMMINALGLYTGKDNFRTAGYDALFSNPPSFFV
# B5: unnamed (protein)
# chain: MDGVLWRVRTAALMAALLALAAWALVWASPSVEAQSNPYQRGPNPTRSALTADGPFSVATYTVSRLSVSGFGGGVIYYPTGTSLTFGGIAMSPGYTADASSLAWLGRRLASHGFVVLVINTNSRFDYPDSRASQLSAALNYLRTSSPSAVRARLDANRLAVAGHSMGGGGTLRIAEQNPSLKAAVPLTPWHTDKTFNTSVPVLIVGAEADTVAPVSQHAIPFYQNLPSTTPKVYVELDNASHFAPNSNNAAISVYTISWMKLWVDNDTRYRQFLCNVNDPALSDFRTNNRHCQ
# B6: unnamed (protein)
# chain: MGSSHHHHHHSSGLVPRGSHMRGPNPTAASLEASAGPFTVRSFTVSRPSGYGAGTVYYPTNAGGTVGAIAIVPGYTARQSSIKWWGPRLASHGFVVITIDTNSTLDQPSSRSSQQMAALRQVASLNGTSSSPIYGKVDTARMGVMGWSMGGGGSLISAANNPSLKAAAPQAPWDSSTNFSSVTVPTLIFACENDSIAPVNSSALPIYDSMSRNAKQFLEINGGSHSCANSGNSNQALIGKKGVAWMKRFMDNDTRYSTFACENPNSTRVSDFRTANCSLEDPAANKARKEAELAAATAEQ
# B7: unnamed (protein)
# chain: SNPYQRGPNPTRSALTADGPFSVATYTVSRLSVSGFGGGVIYYPTGTSLTFGGIAMSPGYTADASSLAWLGRRLASHGFVVLVINTNSRFDYPDSRASQLSAALNYLRTSSPSAVRARLDANRLAVAGHSMGGGGTLRIAEQNPSLKAAVPLTPWHTDKTFNTSVPVLIVGAEADTVAPVSQHAIPFYQNLPSTTPKVYVELDNASHFAPNSNNAAISVYTISWMKLWVDNDTRYRQFLCNVNDPALSDFRTNNRHCQHHHHHH
# B8: unnamed (protein)
# chain: MARTMRSRVVAGAVACAMSIAPFAGTTAVMTLATTHAAMAATAPAAGYAATRYPIILVHGLSGTDKYAGVLEYWYGIQEDLQQNGATVYVANLSGFQSDDGPNGRGEQLLAYVKTVLAATGATKVNLVGHSQGGLSSRYVAAVAPDLVASVTTIGTPHRGSEFADFVQDVLAYDPTGLSSSVIAAFVNVFGILTSSSHNTNQDALAALQTLTTARAATYNQNYPSAGLGAPGSCQTGAPTETVGGNTHLLYSWAGTAIQPTLSVFGVTGATDTSTLPLVDPANVLDLSTLALFGTGTVMINRGSGQNDGLVSKCSALYGKVLSTSYKWNHLDEINQLLGVRGAYAEDPVAVIRTHANRLKLAGV
# B9: unnamed (protein)
# chain: MLAVWDDTLAHPVRGRDRELATLTGLLDNTSGRRGTGMVVVGAPGTGKTTLLNALVEHAEGFQVLWAEGSAAESDVRFAGVEQLLRPLESLVSLLPDDRGRALRPVWGLPADDEGQVGSLAVPAAVSALLGLAARRQPVLCCVDSAHLLDSASLSALAFAARRAHHAGVVFVFAVDCTADTEVDTETSVWGELPRLRLGRLDDEAAHALLRDRLGASLPHDLADSLLDVGHGAPLALVELAESLTPEHLCGRAAPPSSPPPEGRLCRTLGHRLSALSEGAREVVALAGISEGLDEQLTCRVLPHHRSTLAEAVRSGLVVLDGDTVRTAADTVPSALLAALTPQDIVQAHHRMAEAAEAVGDRDRAVWHRAAIAMAPDPALVADLDDIAERARAAAAHATAAAASERAAALTSDTKERARRLVAAATDHWASGRPQRARTALRLAAPLSDSVLGARVSRLAGEIELRRGDPSVAATKLISTARQLASTHRTLAASALMLAGEASFVAGDNARYCLTAKDAALLCGPEEWPATRVVREHFTAMSATFRGEHSAAAAPLRSLVELGETTPDPTAKTLASQAAFTLGDAERSRDLALQAVVCARARGDESGVPWALVYAALSALLSGQLSAASTTALEGLQVARSLGQSNSAVDHVTVLAMLAALQGDEETALQRLQAANTELAERGLGRPSALATWAAACVDLAHDRPAEAFDRFRRMTVGRSRHCVPLRVMAVPHFVEAAVRCGEKEVARRSLVTFEHWANTTGGTARVALAHRCHALLAEQDGEAQERFTEAVRLHREADAPYDLAVTQLLYASHLRRSRRPKQARELLREAVQLFDDLGATHWVERASQELRACGHPGRGKPHLSRGLSPQQERIAQLVADGATNKEIATQLFISHRTVDHHLRNIFAKLDVRSRVQLAALFR
# B10: unnamed (protein)
# chain: B9 chain with A233D
# Key:
# PET [1] = experiment: Proxy for plastic degradation [Absorbance @ 240nm]
# PET [2] = experiment: Proxy for plastic degradation [Weight/mass loss]
# PCL = experiment: Proxy for plastic degradation [Residual activity]; conditions: pH 8
# PET [3] = experiment: Proxy for plastic degradation [Released monomer concentration (HPLC/LC-MS) (MHET+TPA)]; conditions: pH 8
# PET [4] = experiment: Proxy for plastic degradation [adsorption equilibrium constant (K_A), utilising heterogeneous kinetic model]; conditions: pH 8
# PET [5] = experiment: Proxy for plastic degradation [MHET inhibitor binding constant (beta), utilising the kinetic inhibition model]; conditions: pH 8
# PET [6] = experiment: Proxy for plastic degradation [hydrolysis rate constant (k_h), utilising heterogeneous kinetic model] (µmol/(cm²·h)); conditions: pH 8
# [7] = Proxy for plastic degradation [Weight/mass loss]; conditions: pH 8
# PET [8] = experiment: Proxy for plastic degradation [Released Products (MHET,BHET, TPA)]; conditions: pH 8
# pNPB = experiment: Proxy for plastic degradation [Residual activity]; conditions: pH 8
# PBSA = experiment: Proxy for plastic degradation [kcat/Km (catalytic efficiency)] (mM⁻¹s⁻¹); conditions: pH 8.2
protein,measurement,setting,value
B1,Proxy for plastic degradation,"PET [1]; pH 8, 0 h",0 µM
same,Proxy for plastic degradation,"PET [1]; pH 8, 10 °C",0.012 AU
same,Proxy for plastic degradation,"PET [1]; pH 8, 28 °C",0.016 AU
same,Proxy for plastic degradation,"PET [1]; pH 8, 37 °C",0.045 AU
same,Proxy for plastic degradation,"PET [1]; pH 8, 45 °C",0.073 AU
same,Proxy for plastic degradation,PET [1]; pH 8.5,0.199 AU
same,Proxy for plastic degradation,PET [1]; pH 9.5,0.085 AU
same,Proxy for plastic degradation,PET [1]; pH 10.5,0.015 AU
B2,Proxy for plastic degradation,"PET [2]; pH 9, 6 h",20%
B3,Proxy for plastic degradation,PET [2]; pH 8,15.9%
same,Proxy for plastic degradation,PCL,36.5%
same,Proxy for plastic degradation,PET [3],27 µM
same,Proxy for plastic degradation,PET [4],0.338 mL/µg
same,Proxy for plastic degradation,PET [5],0.738 L/mmol
same,Proxy for plastic degradation,PET [6],0.094
B4,Proxy for plastic degradation,[7],0.2 mg
same,Proxy for plastic degradation,PET [2]; pH 8,0 mg
B5,Proxy for plastic degradation,[7],9 mg
same,Proxy for plastic degradation,PET [2]; pH 8,1.5 mg
B6,Proxy for plastic degradation,PET [8]; 4 °C,100 µM
same,Proxy for plastic degradation,PET [8]; 16 °C,410 µM
same,Proxy for plastic degradation,PET [8]; 30 °C,1100 µM
same,Proxy for plastic degradation,PET [8]; 37 °C,300 µM
same,Proxy for plastic degradation,PET [8]; 55 °C,180 µM
same,Proxy for plastic degradation,PET [8]; 70 °C,100 µM
B7,Proxy for plastic degradation,pNPB; 40 °C,100%
same,Proxy for plastic degradation,pNPB; 50 °C,100%
same,Proxy for plastic degradation,pNPB; 90 °C,0%
same,Proxy for plastic degradation,pNPB; 95 °C,0%
B8,Proxy for plastic degradation,[7],2.8 mg
same,Proxy for plastic degradation,PET [2]; pH 8,0 mg
B9,Proxy for plastic degradation,PBSA,430
B10,Proxy for plastic degradation,PBSA,330
